Experimental data from publication PMC7968734.
Each block holds one binder with its values, some of them ahead of it.

Target: replication protein A (RPA) heterotrimer, full-length (UniProt P15927)
Assay: FluorIA

RFU (NC, no inhibitor): 17100 RFU
B1: Full-length RAD52 tagged with 6X-His enhanced green fluorescent protein (EGFP-RAD52) (natural protein)
chain: MSGTEEAILGGRDSHPAAGGGSVLCFGQCQYTAEEYQAIQKALRQRLGPEYISSRMAGGGQKVCYIEGHRVINLANEMFGYNGWAHSITQQNVDFVDLNNGKFYVGVCAFVRVQLKDGSYHEDVGYGVSEGLKSKALSLEKARKEAVTDGLKRALRSFGNALGNCILDKDYLRSLNKLPRQLPLEVDLTKAKRQDLEPSVEEARYNSCRPNMALGHPQLQQVTSPSRPSHAVIPADQDCSSRSLSSSAVESEATHQRKLRQKQLQQQFRERMEKQQVRVSTPSAEKSEAAPPAPPVTHSTPVTVSEPLLEKDFLAGVTQELIKTLEDNSEKWAVTPDAGDGVVKPSSRADPAQTSDTLALNNQMVTQNRTPHSVCHQKPQAKSGSWDLQTYSADQRTTGNWESHRKSQDMKKRKYDPS

percent inhibition of EGFP-RAD52 binding at a molar ratio of 1:1: 50%
B2: RAD52(1-303) (domain or fragment)
chain: MSGTEEAILGGRDSHPAAGGGSVLCFGQCQYTAEEYQAIQKALRQRLGPEYISSRMAGGGQKVCYIEGHRVINLANEMFGYNGWAHSITQQNVDFVDLNNGKFYVGVCAFVRVQLKDGSYHEDVGYGVSEGLKSKALSLEKARKEAVTDGLKRALRSFGNALGNCILDKDYLRSLNKLPRQLPLEVDLTKAKRQDLEPSVEEARYNSCRPNMALGHPQLQQVTSPSRPSHAVIPADQDCSSRSLSSSAVESEATHQRKLRQKQLQQQFRERMEKQQVRVSTPSAEKSEAAPPAPPVTHSTPVT
